This data set can be described thus: soluble on expression in E. coli; label from the status in PepcDB or PDB records.
Turning to “MIPLVSIIVPMYNVEPFIEECIDSLLRQTLSDIEIILVNDGTPDRSGEIAEDYAKRDARIRVIHQANGGLSSARNTGIKAARGTYIGFVDGDDYVSSAMFQRLTEEAEQNQLDIVGCGFYKQSSDRRTYVPPQLEANRVLTKPEMTEQLKHAHETRFIWYVWRYLYRRELFERANLLFDEDIRFAEDSPFNLSAFREAERVKMLDEGLYIYRENPNSLTEIPYKPAMDEHLQKQYQAKIAFYNHYGLAGACKEDLNVYICRHQLPMLLANACASPNSPKDIKKKIRQILSYDMVRQAVRHTPFQHEKLLRGERLVLALCKWRLTFLIKLFFEQRGTMKGSAKQALEHHHHHH”, the “soluble on expression in E. coli” value is “not soluble”.

For “MIPMEELKVKKITNGTVIDHIDAGKALMVFKVLNVPKETSVMIAINVPSKKKGKKDILKIEGIELKKEDVDKISLISPDVTINIIRNGKVVEKLKPQIPDEIEGTLKCTNPNCITNKEKVRGKFKIESKNPLKIRCYYCEKFLNEVIFE”, the “soluble on expression in E. coli” value is recorded as “soluble”.

As to “MIPQRIKELEAYKTEVTPASVRLSSNEFPYDFPEEIKQRALEELKKVPLNKYPDPEAKELKAVLADFFGVKEENLVLGNGSDELIYYLSIAIGELYIPVYIPVPTFPMYEISAKVLGRPLVKVQLDENFDIDLERSIELIEKEKPVLGYFAYPNNPTGNLFSRGKIEEIRNRGVFCVIDEAYYHYSGETFLEDALKREDTVVLRTLSKIGMASLRVGILIGKGEIVSEINKVRLPFNVTYPSQVMAKVLLTEGREFLMEKIQEVVKERERMYDEMKKIEGVEVFPSKANFLLFRTPYPAHEVYQELLKRDVLVRNVSYMEGLQKCLRVSVGKPEENNKFLEALEESIKSLSSSL”, the “soluble on expression in E. coli” value is recorded as “soluble”.

As to “MIQDVIEKKLSDEFQPEFLKVINESDMHNVPRGSESHFKVTVVSERFAGLRPVARHRLVNQTLADELANHIHALAIHTYTTQEWQQMNQESPESPMCLGGSRKSAQ”, the “soluble on expression in E. coli” value is listed as “not soluble”.

In the case of “MIQIVRDNFPGLETAEQLEDYKKTVIKNIERKTALFTKSDNGNIVGVLIFSYYSKCLSCMAVHPDYRKMGIGYAMVKKMIDLFPKDMDISVTTFREGDLKGVAPRAPYKKIGFLEDEFVEEFNYPHQKFIFRNRP”, the “soluble on expression in E. coli” value is “not soluble”.

As to “MIQPRIRQNPFETYEEVAEGFEDLLAPLELFFDREYQGHLDLGTHGTVYSKGTRDAEAFLRPLWGLGPYVTQNESEYLNDFLTGIIEGTDPESSSYWGKTKDYDQLIVEMAALSTFLLLNKEKTWDQLTKEQQNNLHSWLIQANENIIPPNNWHFFRVLLNLAMKHCEMPYSKEQIAVDLAVIDRFYVGNGWYYDGVETQVDYYVSFAIHYYSLLYCRFAPEDTARVAIMKERATLFAQEFKYWFTQPGEAIPFGRSLTYRFAQVSFFSALVFADVEALPWGEIKGLISRHLHQWMNKDIFTTDGLLSVGYDYQNMVFAEGYNGPGSPYWAFKTFILLAVPKDHPYWQAETQPISFPEKHLPSPESRNYYQVNDAGTHGLMFPAGQFINYQAHAHDKYSKFVYSSHFGFSTIKSDYWYYEGAYDNCLALAEDDHYFRTKGLDDQYEILDDRIIHQWHPWSDVAIKTTIVPLEGQHLRIHEIETQRALVAYEGGFSIPLFDEKVTCVSDQMAEVKNAKGVSKVENINGFSEAAIIRTEPNTNLLYPLTELPYLKANLSKGKHLLISLVTGVLPNEQIEPVKVRLKENQLLVEEKVVILGN”, the “soluble on expression in E. coli” value is given as “soluble”.

In the case of “MIQVLGTSSGSGKTTIAMALSRIFFRSGYRVAPFKAVNMSLNSVIVEGEYEIARAQWLQAKAANTEPTRFMNPILLKPEGMGASQVIMLGKSLGKKTIPEYYEFIMNDGKRVIREAIDRISDDYDLIIAEGAGSPAEINLLDRDMANIYVSSIYNTPAILVGDIDRGGVFASIYGTLSLMPRPDLVRWIMINKMRGDASLLEPGLKKLENLTGKRVIGVVPYSENRLPGEDSFDYDHPRARGSKITIVRYPFMENYSDLDPLVYTSTGYNYVTAENASDLSDADLIVLPGSKNVFADLEYMRKNGIDKIIIENAGRAKILGICGGYQMLGQRITMGEISADGLGLLRAKTNYERTKTTRSVRYRVDNTLMSGTWEEGYEIHYGAVISLGGERMNETDKGPEGNVDANRLVFGTNIHGILANRSVFRFMTGRDIGEPEEYLRSEIDRFADVVKSSIDVADLIEYASSRE”, the “soluble on expression in E. coli” value was “not soluble”.

With “MIRGWLAEGERMKETSYYSYVVGELPKGCQYCVRGEKLVLFVTGVCPRNCFYCPLSPWRRKDVAYANERPIRKIEDIIEEAKIQEARGAGVTGGDPLARLNRTVEYIRTLKEEFGKKFHIHLYTTGILADKRALSMLYDAGLDEIRFHPDLFEPSSKFLNREIENLKNAFDFDWDVGGEVPAVPGFGDRIKWFAEILDKFGGKFLNINELEYSETNLSNILNRGFKLAGENSFAIKGSLELGLEILEWGEKNTSLYYHLCTAKLKDAVQLRNRLRRMAKNVAKPYMEITEDGTLRFGIAEYEDLEELYKFLVEEAEVPKEWLYINWEKKRIEMPVEVAEELAEAIEGDVKFYIVEEYPTWDRIEVERIPLN”, the “soluble on expression in E. coli” value was “not soluble”.

“MIRKATWADAPAIASVHVESWKTTYSGIVPDAYLETLSVGEKQPLWEKVLSQSGHSVFVAEENGRVVGFVSGGPNRAADGPIAKYDGELYAIYLLKEVQGKGLGRQLVQALTRHLAQKGIHSLVVWVLADNPSRGFYERLGGEKVAEERVEIGGKALWEWCYELARRPIDGTVGGLPNRAAA”: the “soluble on expression in E. coli” value is recorded as “not soluble”.

On to “MIRKLDKAEFQQATTLALEVYLQCGQDDFEDEGLESFKSFIFNDKLMNELCIYGAFEENKLIGIMGTKNEGKHISLFFIKKEFHRKGIGKQLFDYSQCDCPANEITVNSSTYAIRFYESLGFEKTNDRQQTNGISYTPMKLISNKLEHHHHHH”, for which the “soluble on expression in E. coli” value was “soluble”.

Take “MIRLLTLLALLLPVPGWAGCRQALALGLDVSGSVDGREYRLQLDGLAAALLAPEVQARLLAMPGHPIRLAVYEWSEPGFQRLILPWHQIDTAADLETVAATLRTTRRAAAPPGTAIGPAMHHGAALLAQQPDCWKRTLDLSGDGKHNMGPHPRVVKAALEGSGLTVNALVIGADSTTFTDLRQTQIGELSAYYGAWVILGPDAFVEVALGYEDYQAAMERKLRRELEGLVLSALPTRAATQLHAPVLPWPVLPQAAALEHHHHHH”: the “soluble on expression in E. coli” value is on record as “not soluble”.

“MIRPVDFQGFVVKGVESVQNVSQTLNQQTLVQQALSQHLLHQIQREQSSVKESNTAERAEVRTSTERRQRGFPQTRTHSSLKKKKTSIKEENKGLFMDVRTLEHHHHHH”: the “soluble on expression in E. coli” value is given as “not soluble”.

For the sequence “MIRSMTAYARREIKGEWGSATWEMRSVNQRYLETYFRLPEQFRSLEPVVRERIRSRLTRGKVECTLRYEPDVSAQGELILNEKLAKQLVTAANWVKMKSDEGEINPVDILRWPGVMAAQEQDLDAIAAEILAALDGTLDDFIVARETEGQALKALIEQRLEGVTAEVVKVRAHMPEILQWQRERLVAKLEDAQVQLENNRLEQELVLLAQRIDVAEELDRLEAHVKETYNILKKKEAVGRRLDFMMQEFNRESNTLASKSINAEVTNSAIELKVLIEQMREQIQNIE”, the “soluble on expression in E. coli” value was “not soluble”.

With “MISDIRKDAEVRMDKCVEAFKTQISKIRTGRASPSLLDGIVVEYYGTPTPLRQLASVTVEDSRTLKINVFDRSMSPAVEKAIMASDLGLNPNSAGSDIRVPLPPLTEERRKDLTKIVRGEAEQARVAVRNVRRDANDKVKALLKDKEISEDDDRRSQDDVQKLTDAAIKKIEAALADKEAELMQF”, the “soluble on expression in E. coli” value is “soluble”.

Consider “MISHCRRLLATTTALVIASTAIAAAEPSAELIAAAKKEGMLTTVALPHDWCGYGDVIAAFKAKYPEITVNELNPDAGSADEVEAVKANKDNKGPQAPDVVDVGLAFGPQMKAEGLLQPYKVSTWAEIPDNVKDADGYWYGDYYGVMSMFVNKDLVKNVPKDWADLLKPEYSGQVALAGDPRASNQAILGVLAAGLSTGAKSGKEAGEAGLKYFADLNKAGNFLPVIGKAGTLAQGATPIIVAWDYNALSWKKTLNDNPPTEVVVPEKGVLAGVYVQGISAYAPHPNAAKLWMEHLYSDDGQLGWLKGYCHPIRFNAMVKAGKVPQELIDSLPPAAAYEKAIFPTLEEVDANKAAVTGGWDKVVGANVK”, for which the “soluble on expression in E. coli” value is “not soluble”.

As to “MISIPKDEFQQIFVKDLMISSEKVAHVQIGNGLEHALLVLVKSGYSAIPVLDPMYKLHGLISTAMILDGILGLERIEFERLEEMKVEQVMKQDIPVLKLEDSFAKALEMTIDHPFICAVNEDGYFEGILTRRAILKLLNKKVRQHNR”, the “soluble on expression in E. coli” value is “not soluble”.

As for “MISIVIPLYNQVAYTQLCVQSLRRAGLNGVDVLLIDNGSTDGTAEYLKSCSDLRVIRNRENLGCAGAWNQGVRETTSEWVMILNNDVVVSPGWLDGLLEAAGKEGLDVVSPAIREGEYNYDIEGYSQEFVGRMGDVVRRGVADGICFMVRRRVFEVVGLFDENFRIGQFEDADFFRRARNAGFRLGTTGRSFIHHFGSVTQDAIRKNRPERPYVAENRAYFREKWQLTRGRRLIERWRRKLREFAWQKCERMFHGHTLKEKWLGGRLRYYLEHHHHHH”, the “soluble on expression in E. coli” value was “not soluble”.

As to “MISMKPRYKPDWESLREHTVPKWFDKAKFGIFIHWGIYSVPGWATPTGELGKVPMDAWFFQNPYAEWYENSLRIKESPTWEYHVKTYGENFEYEKFADLFTAEKWDPQEWADLFKKAGAKYVIPTTKHHDGFCLWGTKYTDFNSVKRGPKRDLVGDLAKAVREAGLRFGVYYSGGLDWRFTTEPIRYPEDLSYIRPNTYEYADYAYKQVMELVDLYLPDVLWNDMGWPEKGKEDLKYLFAYYYNKHPEGSVNDRWGVPHWDFKTAEYHVNYPGDLPGYKWEFTRGIGLSFGYNRNEGPEHMLSVEQLVYTLVDVVSKGGNLLLNVGPKGDGTIPDLQKERLLGLGEWLRKYGDAIYGTSVWERCCAKTEDGTEIRFTRKCNRIFVIFLGIPTGEKIVIEDLNLSAGTVRHFLTGERLSFKNVGKNLEITVPKKLLETDSITLVLEAVEEHHHHHH”, the “soluble on expression in E. coli” value is “soluble”.

Turning to “MISWEIEELDREIGKIKKHSLILIHEEDASSRGKDILFYILSRKLKSDNLVGMFSISYPLQLIIRILSRFGVDVIKYLENHRLAIVDTFGSFHGIKATMPGVWYLEGMLSSETLPIKYAKAVEDHKKVWMDLNLFEGRELYGFAISMSGYLEVFTPEETLRYLETSAEVRYGHPAYKKYPRGTNFWLWEGVKDKRVLLSVYRRADYVLKTRSSLGENGIKRELLVIKTPKPIEELVRFEYEFKGNEPKLRRVD”, the “soluble on expression in E. coli” value is “soluble”.

As for “MISYQKAKLAKNLAISTASKWLFVHSSTGGSATNLSIAQYATLINGIQSAIKCQVILTAGKGERERAVELAEKLTDQNVVIYDKNDGLADFTRSLACADLFIAGSTGPLHIAGGLNIPTVGFYPSRLSATPRRWRPINQVDKHLAFCPPSGKQCEMDLTLISIEQALTSVIPFIKKMWQLSLEHHHHHH”, the “soluble on expression in E. coli” value is “not soluble”.

Consider “MITLFQFPAAFNVPNASPYCLKLETWLRLAGLEYQVKVVSDPRKAPKGKLPYVRIEGEAIGDSEIVIRTLGERYGVTLDAGLDARGKGWARAITRLCDEHLYYLMLYFRWFDEDSWRVLKPVFFGSLPFGVRDAVAWAMRRKVRATLRAQGLGVHGRDELLAFARDDLDALDGLLGQVPYYGGEHPCSADAAAYGILANLIEATLDTPLSHVARGYPRLVAYCERMRERVWSELEHHHHHH”, for which the “soluble on expression in E. coli” value is “soluble”.

As for “MITLWENRDKWEEDSNLHGLLLTIIKNKALNYLAHLQVRLRAEEEINSHSQRELDLRISTLEACEPDAIFDSEIQHIVQKALKRMPNQSRQIFILSRYQNTPNKKIAEQLGISVKSVEFHITKALKILRTELKDYLVSILF”, the “soluble on expression in E. coli” value was “not soluble”.

The record behind these values is the DeepSol protein solubility set.
